Reference: PMC6635409
Several values for one entry are separate records, joined by “and”; a condition that tells them apart may be missing. Identical values can stand only once.

Biological target: nicotinic acetylcholine receptor subunit α9 (CHRNA9) (human (endogenous in BT474, MDA-MB-231, A549, RT4, MIA PaCa-2 and clinical breast tumors)) (UniProt Q9UGM1)
Assay: co-IP; endogenous proteins in MDA-MB-231 cells; reciprocal IPs, 1% NP40 lysis buffer, Protein G beads; IP ratio (IPR) against input, threshold >3% in both

UniProt Q9UGM1, sequence (Q9UGM1 23-479): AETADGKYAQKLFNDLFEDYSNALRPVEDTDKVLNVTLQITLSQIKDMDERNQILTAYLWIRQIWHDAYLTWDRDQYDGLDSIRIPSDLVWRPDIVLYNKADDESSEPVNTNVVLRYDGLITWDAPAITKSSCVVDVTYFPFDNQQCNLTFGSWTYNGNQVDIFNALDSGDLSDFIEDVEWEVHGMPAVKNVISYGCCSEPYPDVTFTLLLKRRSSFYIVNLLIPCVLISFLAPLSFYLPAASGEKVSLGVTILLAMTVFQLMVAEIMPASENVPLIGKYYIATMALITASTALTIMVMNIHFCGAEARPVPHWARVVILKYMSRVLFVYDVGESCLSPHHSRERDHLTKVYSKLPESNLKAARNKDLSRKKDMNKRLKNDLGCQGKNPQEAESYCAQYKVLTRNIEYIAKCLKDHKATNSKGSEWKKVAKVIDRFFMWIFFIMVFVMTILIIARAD

IP ratio (IPR): 3.05% and 25.1%
Substance: ABCB1 (from UniProt P08183 1-1280) (natural protein)
